Laboratory results taken from patent US20260263563A1, “Method of Treatment of a Thoracolumbar Deformity in a Human Subject with Achondroplasia” (Ascendis Pharma Growth Disorders A/S, priority 2023, published 2026).
Read-outs that look alike come from different tables or passages of the source.

Tested on: prepubertal children with achondroplasia
Method: The study enrolled a minimum of 60 male and female prepubertal children with ACH aged 2 to 10 years old. The clinical trial is listed on www.clinicaltrials.gov under the ClinicalTrials.gov Identifier: NCT04085523. The objectives of the study were as follow:
This trial is a multicenter trial consisting of two treatment periods.
Participants should rest for at least 5 minutes before vital sign measurement and vital signs should be taken prior to any blood draws. The following vital signs should be measured: • Heart Rate (measured in beats per minute) • Blood Pressure (seated BP will be taken measured in mm Hg) • Temperature [measured in degrees Celsius (° C.) or Fahrenheit (° F.)]
All vital signs above must be measured at all visits. […] Orthostatic hypotension is defined as decrease in SBP of ≥20 mmHg (Stewart et al., Pediatrics, 141, 1-13, 2018). Accompanying tachycardia is defined as change of heart rate increment of ≥40 bpm and absolute orthostatic HR≥130 bpm (for ages 13 years and younger) (Singer et al., Journal of Pediatrics, 160, 222-226, 2012). Additionally, at Visit 1 and Visit 7 (in the Open-Label Extension Period), all vital signs must be monitored at 1 hour and 2 hours post injection of the study drug.

[1] = 57 patients followed for up to 65 weeks
[2] = more than 2,000 injections administered

Navepegritide [Compound (1)]
Serious TEAE (6 μg/kg/week (n = 10)): 1 (10.0) | Subject with Treatment-Emergent Adverse Events (TEAE) (6 μg/kg/week (n = 10)): 9 (90.0) | Subjects with at Least One Treatment-Related TEAE (6 μg/kg/week (n = 10)): 3 (30.0) | TEAE Grade 1 (6 μg/kg/week (n = 10)): 9 (90.0) | TEAE Grade 2 (6 μg/kg/week (n = 10)): 3 (30.0) | Treatment-Related TEAE (6 μg/kg/week (n = 10)): 3 (30.0) | Treatment-related: Abdominal pain upper (6 μg/kg/week (n = 10)): 0 | Treatment-related: Dizziness (6 μg/kg/week (n = 10)): 0 | Treatment-related: Injection site reaction (6 μg/kg/week (n = 10)): 2 (20.0) | Treatment-related: Overdose (6 μg/kg/week (n = 10)): 0 | Treatment-related: Sleep terror (6 μg/kg/week (n = 10)): 0 | Treatment-related: Urticaria (6 μg/kg/week (n = 10)): 1 (10.0) | Achondroplasia-Related TEAE (6 μg/kg/week (n = 10), placebo 9 (60.0)): 3 (30.0) | Achondroplasia-Related TEAE (20 μg/kg/week (n = 11)): 4 (36.4) | Serious TEAE (20 μg/kg/week (n = 11)): 0 | Subject with Treatment-Emergent Adverse Events (TEAE) (20 μg/kg/week (n = 11)): 11 (100.0) | Subjects with at Least One Treatment-Related TEAE (20 μg/kg/week (n = 11)): 2 (18.2) | TEAE Grade 1 (20 μg/kg/week (n = 11)): 11 (100.0) | TEAE Grade 2 (20 μg/kg/week (n = 11)): 3 (27.3) | Treatment-Related TEAE (20 μg/kg/week (n = 11)): 2 (18.2) | Treatment-related: Abdominal pain upper (20 μg/kg/week (n = 11)): 1 (9.1) | Treatment-related: Dizziness (20 μg/kg/week (n = 11)): 0 | Treatment-related: Injection site reaction (20 μg/kg/week (n = 11)): 1 (9.1) | Treatment-related: Overdose (20 μg/kg/week (n = 11)): 0 | Treatment-related: Sleep terror (20 μg/kg/week (n = 11)): 0 | Treatment-related: Urticaria (20 μg/kg/week (n = 11)): 0 | Achondroplasia-Related TEAE (50 μg/kg/week (n = 10)): 5 (50.0) | Serious TEAE (50 μg/kg/week (n = 10)): 1 (10.0) | Subject with Treatment-Emergent Adverse Events (TEAE) (50 μg/kg/week (n = 10)): 10 (100.0) | Subjects with at Least One Treatment-Related TEAE (50 μg/kg/week (n = 10)): 3 (30.0) | TEAE Grade 1 (50 μg/kg/week (n = 10)): 10 (100.0) | TEAE Grade 2 (50 μg/kg/week (n = 10)): 3 (30.0) | Treatment-Related TEAE (50 μg/kg/week (n = 10)): 3 (30.0) | Treatment-related: Abdominal pain upper (50 μg/kg/week (n = 10)): 0 | Treatment-related: Dizziness (50 μg/kg/week (n = 10)): 0 | Treatment-related: Injection site reaction (50 μg/kg/week (n = 10)): 3 (30.0) | Treatment-related: Overdose (50 μg/kg/week (n = 10)): 0 | Treatment-related: Sleep terror (50 μg/kg/week (n = 10)): 0 | Treatment-related: Urticaria (50 μg/kg/week (n = 10)): 0 | Achondroplasia-Related TEAE (100 μg/kg/week (n = 11)): 1 (9.1) | Serious TEAE (100 μg/kg/week (n = 11)): 0 | Subject with Treatment-Emergent Adverse Events (TEAE) (100 μg/kg/week (n = 11)): 10 (90.9) | Subjects with at Least One Treatment-Related TEAE (100 μg/kg/week (n = 11)): 2 (18.2) | TEAE Grade 1 (100 μg/kg/week (n = 11)): 9 (81.8) | TEAE Grade 2 (100 μg/kg/week (n = 11)): 1 (9.1) | Treatment-Related TEAE (100 μg/kg/week (n = 11)): 2 (18.2) | Treatment-related: Abdominal pain upper (100 μg/kg/week (n = 11)): 0 | Treatment-related: Dizziness (100 μg/kg/week (n = 11)): 0 | Treatment-related: Injection site reaction (100 μg/kg/week (n = 11)): 2 (18.2) | Treatment-related: Overdose (100 μg/kg/week (n = 11)): 0 | Treatment-related: Sleep terror (100 μg/kg/week (n = 11)): 0 | Treatment-related: Urticaria (100 μg/kg/week (n = 11)): 0 | reporting of achondroplasia related treatment emergent adverse events (100 μg/kg/week dose group, 60% in the placebo group): 9.1% | AEs on orthostatism [1]: no AEs reported on orthostatism | serious adverse events related to the trial drug [1]: no serious adverse events related to the trial drug | withdrawals or discontinuations from the trial [1]: no withdrawals or discontinuations | total AEs related to trial drug or procedures (57 patients, more than 1900 injections): 13 | severity of ISRs (all ISRs): mild | injection site reactions (among more than 1900 injections): 8 | number of injection site reactions (ISRs) [2]: 11 | number of patients with ISRs [2]: 8 | tolerability of injections (weekly s.c. injections): well tolerated with a low frequency of injection site reactions
